The record followed here is ChEMBL document CHEMBL1140886, “Development of an optimized activatable MMP-14 targeted SPECT imaging probe” (Bioorg Med Chem, 2009).

The test system of this series is CC[C@H](C)[C@H](NC(=O)[C@H](CCCNC(=N)N)NC(=O)CNC(=O)[C@@H](N)CO)C(=O)NCC(=O)N[C@@H](Cc1ccccc1)C(=O)N[C@@H](CC(C)C)C(=O)N[C@@H](CCCNC(=N)N)C(=O)N[C@H](C(=O)N[C@@H](C)C(=O)O)[C@@H](C)O. Description: Ratio of kcat/km for human recombinant MMP14 assessed as drug cleavage.

As usually defined, the kcat/Km is the turnover number divided by the Michaelis constant. Take “Matrix metalloproteinase-14 (Homo sapiens) (from UniProt P50281)”: the kcat/Km came to 777000 M⁻¹ s⁻¹.
